Results published in publication PMC2173742 (The Journal of Cell Biology, 2003).

Experiments:
[1] = molecular target: the molecule itself; assay: SEC + other: velocity sedimentation
[2] = molecular target: bovine Taxol-stabilized MTs (bovine) (UniProt Q6B856); assay: co-sedimentation

Kd [2]: 300 nM
B1: Ase1p–MYC–6xHis (natural protein, budding yeast, UniProt P50275 1-885, looked up)
chain: METATSSPLPIKSRRNSENSGSTTVIPHMNPSLATPLTVSTMVNQSNSKEFMKLTPVRIRDFGSPLKNVSTNYHFLDSENGKGNTMDNMYRENFILISKDLEKLLENLNVIYQNIGYSNTEIITKEKIIFTTISNSIKQFFEQADEELKRLSAENGIEQDILNNILERINDPSGIKTIPDLYIRNAILLQESKTVPQSPKKPLSLLSKKAALDTAKKFVLGSFLPRLRDYLKSLITLKHLIQSVKENLPGLTEADNEAIAEFPELSTLTAYLLQIENGKGDIGLSMKFIIDNRKDILKGSAFKTINEESVKHMNEVIKIYEEEYERRFKSVLTKKVSISSICEQLGTPLATLIGEDFEQDLRSYGEEENSTSEIPNFHPVDRERMSKIDITLEKLQAIHKERADKKRLLMEQCQKLWTRLKISQEYIKTFMRNNSSLSTESLGRISKEVMRLEAMKKKLIKKLISDSWDKIQELWRTLQYSEESRSKFIIVFEELRNSATTLQEDELLLETCENELKRLEEKLTLYKPILKLISDFESLQEDQEFLERSSKDSSRLLSRNSHKILLTEEKMRKRITRHFPRVINDLRIKLEEADGLFDQPFLFKGKPLSEAIDIQQQEIEAKYPRCRVRMQRSKKGKCGANKENKVIKNTFKATESSIRVPIGLNLNDANITYKTPSKKTIQGLTKNDLSQENSLARHMQGTTKLSSPNRRATRLLAPTVISRNSKGNIERPTLNRNRSSDLSSSPRINHTHGEHAVKPRQLFPIPLNKVDTKGSHIPQLTKEKALELLKRSTGTTGKENVRSPERKSSLEDYAQKLSSPYKEPEHSIYKLSMSPEGKFQLNIQQKDIESGFDDTSMMEDENDKDFITWKNEQVSKLNGFSFTDI
stoichiometry N [1]: 2
